Measured values from publication PMC6130882 (PLoS Pathogens, 2018).

How the values were obtained:
[1] = biological target: recombinant A244 gp120 (subtype A/E, GSID) (HIV-1 A244 (subtype A/E)); assay: SPR
[2] = biological target: recombinant SIVmac766 gp120 (SIVmac766); assay: SPR
[3] = biological target: synthetic cyclic 42 amino acid V2 peptide of 92TH023 gp120 (HIV-1 92TH023 (subtype A/E)); assay: SPR
[4] = biological target: synthetic cyclic 42 amino acid V2 peptide of 92TH023 gp120 (HIV-1 92TH023 (subtype A/E)); assay: static cell adhesion assay; RPMI8866 cells on immobilised MAdCAM or cV2 92TH023 in buffer with a high concentration of MgCl2
[5] = biological target: deglycosylated 92TH023 V1/V2 tag scaffold (HIV-1 92TH023 (subtype A/E)); assay: static cell adhesion assay
[6] = biological target: T1, recombinant soluble α4β7 heterodimer (human, UniProt P13612 35-977; P26010 20-723, disulfide bond joining the acid-base clasp | disulfide bond joining the acid-base clasp); assay: SPR; settings: both partners purified
T1 construct: also called integrin α4β7; not shown: acid coiled-coil clasp peptide, C-terminal, kept; base coiled-coil clasp peptide, C-terminal, kept

For “recombinant soluble α4β7 heterodimer (from UniProt P13612 35-977; P26010 20-723) (complex)”, the Kd [1] was 7.14 nM, the Kd [2] was 104 nM and the Kd [3] was 1.15 nM.

Work on “integrin α4β7 expressed on the surface of RPMI8866 cells (from UniProt P13612 34-1032; P26010 20-798) (receptor)” yielded a fold reduction of adhesion in MgCl2 against MnCl2 [4] of 2.5 fold and a fold adhesion against deglycosylated 92TH023 V1/V2 1FD6 [5] of 5 fold.

“soluble α4β1 (from UniProt P13612 35-977; P05556 21-728) (complex)” was tested, and the Kd [3] was 9710 nM.

B1: MAdCAM-Ig fusion protein (Fc fusion, human, UniProt Q13477 19-317, looked up)
chain: QSLQVKPLQVEPPEPVVAVALGASRQLTCRLACADRGASVQWRGLDTSLGAVQSDTGRSVLTVRNASLSAAGTRVCVGSCGGRTFQHTVQLLVYAFPDQLTVSPAALVPGDPEVACTAHKVTPVDPNALSFSLLVGGQELEGAQALGPEVQEEEEEPQGDEDVLFRVTERWRLPPLGTPVPPALYCQATMRLPGLELSHRQAIPVLHSPTSPEPPDTTSPESPDTTSPESPDTTSQEPPDTTSPEPPDKTSPEPAPQQGSTHTPRSPGSTRTRRPEISQAGPTQGEVIPTGSSKPAGDQ
notes: also called Hu-MAdCAM-Ig; MAdCAM-1
B1 was tested, and the Kd [6] was 0.597 nM.
